The target of the test is T1, 鼠VEGF (mouse, UniProt Q00731-2 27-190, limits assumed).
T1 construct: Coated on the ELISA plate at 0.5 ug/ml; also called mouse VEGF
T1 sequence (looked up): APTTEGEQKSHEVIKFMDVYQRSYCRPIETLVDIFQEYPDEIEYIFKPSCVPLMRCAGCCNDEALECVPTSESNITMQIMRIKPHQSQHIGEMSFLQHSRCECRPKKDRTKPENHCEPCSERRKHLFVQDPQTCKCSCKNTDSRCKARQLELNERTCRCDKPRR
Nature of the test: ELISA, mouse VEGF coated at 0.5 ug/ml. A general note: ELISA stands for enzyme-linked immunosorbent assay.

B1: NevegiMab抗体 (antibody, V domains shown)
VH: EVKLQESGPELKKPGETVKISCKASGYTFTNYGLNWVKQAPGKGLKWMGWINTYTGEPTYADDFKGRFAFSLETSASTAYLQINNLKNEDMATYFCAKYGITYEWYFDVWGAGTTVTVSS
VL: DIVLTQSTSSLSASLGDRVTISCRASQDISNSLNWYQQKPNGTVILLIYYTSRLHSGVPSRFSGSGSGAVYSLTISDLEQEDIATYFCQQGNTFPWTFGGGTKLEIKR
notes: Mouse monoclonal antibody purified from hybridoma supernatant; also called 单抗NevegiMab; 单克隆抗体NevegiMab
As for B1, the binding result is listed as “no binding”.
